B1: VCP^WT-sfGFP (Drosophila VCP tagged with sfGFP at the endogenous locus) [Drosophila] / wild-type VCP (endogenous, untagged, Drosophila) [Drosophila (endogenous in flies)] (parent)
chain 1: MADSKGEDLATAILKRKDRPNRLIVEEAQNDDNSVVSLSQAKMDELQLFRGDTVILKGKRRKETVCIVLSDDTCPDEKIRMNRVVRNNLCVHLSDVVSVQSCPDVKYGKRVRILPIDESTEGVTGNLFEIYLKPYFLEAYRPIHMGDNFIVRAAMRPIEFKVVLTDPEPYCIVAPETVIFCDGDPIKREEEEESLNAVGYDDIGGCRKQLAQIKEMVELPLRHPSLFKAIGVKPPRGILMYGPPGTGKTLIARAVANETGAFFFLINGPEIMSKLAGESESNLRKAFEEAEKNSPAIIFIDEIDAIAPKRDKTHGEVERRIVSQLLTLMDGMKKSSHLIVMAATNRPNSIDPALRRFGRFDREIDIGIPDATGRLEVLRIHTKNMKLHDDVDLEQIAAESHGHVGADLASLCSEAALQQIREKMDLIDLEDDKIDAEVLASLAVTMENFRYAMTKSSPSALRETVVEVPNTTWTDIGGLESVKKELQELVQYPVEHPDKFLKFGMQPSRGVLFYGPPGCGKTLLAKAIANECQANFISVKGPELLTMWFGESEANVRDIFDKARSAAPCVLFFDELDSIAKARGGNVGDAGGAADRVINQILTEMDGMGAKKNVFIIGATNRPDIIDPAILRPGRLDQLIYIPLPDDKSREAILKANLRKSPLAKEVDLTYIAKVTQGFSGADLTEICQRACKLAIRQAIEAEIRREKERAENQNSAMDMDEDDPVPEITSAHFEEAMKFARRSVSDNDIRKYEMFAQTLQQSRGFGQNFRFPGQTGNTSGSGNNLPVNSPGDNGDDDLYS
chain 2: B1 chain 1

Variants of: B1
Assay: co-immunoprecipitation (IP: GFP, IB: VCP), band quantification
Settings: with wild-type VCP (endogenous, untagged, Drosophila) [Drosophila (endogenous in flies)]; heterozygous flies; n = 3 independent experiments; read off a plot

Row | response | Variant
1 | 0.93 | chain 1 P134L

Source: article PMC7820495
